One assay concerns the target T1, human MerTK (human, UniProt Q12866 21-999).
T1 construct: endogenous receptor on cells; also called human MerTK endogenously expressed on SK-MEL-5 cells; MerTK on human macrophages
T1 sequence: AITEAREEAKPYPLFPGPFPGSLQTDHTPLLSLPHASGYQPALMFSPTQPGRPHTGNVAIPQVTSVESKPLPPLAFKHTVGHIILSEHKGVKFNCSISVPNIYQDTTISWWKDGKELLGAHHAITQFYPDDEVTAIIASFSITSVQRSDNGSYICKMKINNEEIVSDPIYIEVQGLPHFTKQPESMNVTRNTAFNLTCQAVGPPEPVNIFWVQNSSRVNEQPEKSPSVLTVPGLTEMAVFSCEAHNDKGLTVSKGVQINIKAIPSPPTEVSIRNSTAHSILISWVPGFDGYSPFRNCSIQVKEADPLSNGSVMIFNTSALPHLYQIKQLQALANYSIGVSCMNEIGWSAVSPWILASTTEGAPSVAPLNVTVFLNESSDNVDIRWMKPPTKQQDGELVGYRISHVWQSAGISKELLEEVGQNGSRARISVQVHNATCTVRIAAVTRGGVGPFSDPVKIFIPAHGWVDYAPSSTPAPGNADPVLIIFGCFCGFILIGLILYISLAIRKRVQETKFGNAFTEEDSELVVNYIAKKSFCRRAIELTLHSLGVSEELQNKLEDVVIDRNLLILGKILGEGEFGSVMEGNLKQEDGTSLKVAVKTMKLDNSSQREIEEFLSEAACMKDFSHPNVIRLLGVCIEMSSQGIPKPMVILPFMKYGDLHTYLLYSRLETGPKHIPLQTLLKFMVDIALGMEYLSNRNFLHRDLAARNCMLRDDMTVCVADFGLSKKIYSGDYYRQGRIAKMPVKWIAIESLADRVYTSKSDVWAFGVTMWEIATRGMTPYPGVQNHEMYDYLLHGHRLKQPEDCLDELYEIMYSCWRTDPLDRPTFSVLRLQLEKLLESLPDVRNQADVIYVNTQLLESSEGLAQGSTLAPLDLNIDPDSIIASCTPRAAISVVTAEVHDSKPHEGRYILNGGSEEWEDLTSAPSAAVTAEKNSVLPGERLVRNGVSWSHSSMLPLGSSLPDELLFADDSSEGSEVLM
In words: FACS, SK-MEL-5 cells, 10 ug/ml. The method, then:
(§1) To determine whether recombinant anti-human MerTK antibodies of the present disclosure bind to human MerTK endogenously expressed on SK-MEL-5 cells and CHO cells overexpressing mouse MerTK (CHO-muMerTK OE cells), as compared to A375 and parental CHO cells as negative controls, the following experiments were performed. SK-MEL-5 cells, A375 cells, CHO-muMerTK OE cells, and CHO parental cells were plated at 100,000 cells/well. Anti-MerTK antibodies were added to the cells at 10 μg/ml. After 60 minutes on ice, cells were washed and then stained with PE-conjugated goat anti-human IgG antibody (Southern Biotech Cat #2040-09, Birmingham, AL) in the presence of Fc block solution on ice for 30 minutes, and then washed twice with cold FACS buffer (2% FBS in PBS). Mouse anti-human MerTK-PE conjugated (Biolegend, Clone 590H11G1E3) or anti-mouse MerTK-PE conjugated (ThermoFisher, Clone DS5MMER) antibodies were used as positive controls. Stained cells were acquired on a BD FACS Canto II cytometer and the mean fluorescence intensity (MFI) was calculated with FlowJo.
On the technique in general: Flow cytometry measures light scatter and fluorescence of single cells or particles in a stream.

Assay [1] concerns the target T2, mouse MerTK overexpressed on CHO cells (mouse, UniProt Q60805 19-994).
T2 construct: whole, on cells; also called CHO-muMerTK OE
T2 sequence (looked up): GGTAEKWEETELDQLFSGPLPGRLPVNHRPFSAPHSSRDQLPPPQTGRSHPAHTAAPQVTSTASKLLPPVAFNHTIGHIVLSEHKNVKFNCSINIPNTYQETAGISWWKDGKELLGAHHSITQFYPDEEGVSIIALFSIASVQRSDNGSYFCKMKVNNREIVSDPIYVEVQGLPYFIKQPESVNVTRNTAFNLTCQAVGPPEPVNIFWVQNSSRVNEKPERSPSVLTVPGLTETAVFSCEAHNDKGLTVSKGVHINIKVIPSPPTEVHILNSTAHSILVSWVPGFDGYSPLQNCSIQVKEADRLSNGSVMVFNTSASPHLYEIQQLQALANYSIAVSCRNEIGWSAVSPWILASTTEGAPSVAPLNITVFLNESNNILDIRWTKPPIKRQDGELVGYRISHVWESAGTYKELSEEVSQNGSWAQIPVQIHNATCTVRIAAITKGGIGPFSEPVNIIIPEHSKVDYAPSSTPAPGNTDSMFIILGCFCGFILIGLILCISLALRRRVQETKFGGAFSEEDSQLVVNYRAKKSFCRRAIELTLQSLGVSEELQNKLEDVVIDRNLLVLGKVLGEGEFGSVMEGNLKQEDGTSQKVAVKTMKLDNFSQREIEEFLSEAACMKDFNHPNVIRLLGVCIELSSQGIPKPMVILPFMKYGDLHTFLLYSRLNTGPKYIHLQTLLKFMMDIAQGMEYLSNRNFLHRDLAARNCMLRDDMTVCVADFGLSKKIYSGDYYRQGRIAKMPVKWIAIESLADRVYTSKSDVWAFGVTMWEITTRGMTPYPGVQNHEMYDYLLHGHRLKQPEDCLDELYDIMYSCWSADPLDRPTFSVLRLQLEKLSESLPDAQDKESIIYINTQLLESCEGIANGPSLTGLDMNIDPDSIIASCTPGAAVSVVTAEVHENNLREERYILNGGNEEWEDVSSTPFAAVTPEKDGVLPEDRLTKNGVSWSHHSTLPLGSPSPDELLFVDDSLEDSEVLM
In words: FACS, CHO-muMerTK OE cells, 10 ug/ml. On the procedure: as §1

B1: MTK-207 (antibody, human IgG1, V domains shown)
VH: QVQLKESGPGLVAPSQSLSITCTVSGISLTSYGVSWVRQPPGKGLEWLGIIWGDGSTNYHSALISRLSISKDNSKSQVFLKLNSLQTDDTATYYCAKGRYGNYEDWYFDVWGTGTTVTVSS
VL: DIQMTQSPASLSASVGETVTITCRASGNIHNYLAWYQQKQGKSPQLLVYNAKTLAAGVPSRFSGSGSGTQYSLKINSLQPEDFGSYYCQHFWSIPLTFGAGTKLELK
Turning to B1, the MFI in the assay with human MerTK was found to be 1190 MFI; in assay [1], 279 MFI.

B2: MTK-220 (antibody, V domains shown)
VH: EVQLVESGGGLVKPGGSLKLSCAASGFTFSDYGMHWVRQAPEKGLEWVAFISGGSGTIYYEDTVKGRFTISRDNAKNTLFLQMTSLRSEDTAMYYCTRGGNYFDYWGQGTTLTVSS
VL: NIMLTQSPSSLAVSAGEKVTMTCKSSQSVLYSSNQKNYLAWYQQKPGQSPKLLIYWASTRESGVPDRFTGSGSGTDFTLTISNVQAEDLAVYYCHQYFSSWTFGGGTKLEIK
Turning to B2, the figures for the MFI (with human MerTK; in assay [1]) were 29000 MFI and 5800 MFI, respectively.

B3: MTK-202 (antibody, human IgG1, V domains shown)
VH: EVQLVESGGGLVKPGGSLKLSCAASGFTFSDFGMHWVRQVPEKGLEWVAFISGGSNTIYYTDTVKGRFTISRDNAKNTLFLQMTSLRSEDTAMYYCVRNGNSFAYWGQGTLVTVSA
VL: NIMMTQSPSSLAVSAGEKVTMNCKSSQSVLYSSNQKNYLAWYQQKPGQSPKLLIYWASTRESGVPDRFTGSGSGTDFTLTISNIQAEDLAIYYCHQYFFSWTFGGGTKLEIK
Regarding B3, the figures for the MFI (with human MerTK; in assay [1]) were 46100 MFI and 4410 MFI, respectively.

B4: MTK-204 (antibody, human IgG1, V domains shown)
VH: EVQLVESGGGLVKPGGSLKLSCAASGFTFSDYGMHWVRQAPEKGLEWVAYISSGTSTIYYEDTVKGRFTISRDNAKNTLFLQMTSLRSEDTAMYYCARGGLLFDYWGQGTTLTVSS
VL: NIMMTQSPSSLAVSAGEKVTMSCKSSQSVLYSSNQKNYLAWYQQKPGQSPKLLIQWASTRESGVPDRFTGSGSETDFTLTIRSVQAEDLAVYYCHQYFSSWTFGGGTKLEIK
Consider B4, for which the values for the MFI (in the assay with human MerTK; in assay [1]) were 33800 MFI and 713 MFI, respectively.

B5: MTK-208 (antibody, human IgG1, V domains shown)
VH: QVQLQQPGAELVVPGASVRLSCKASGYTFINYWMHWVKQRPGQGLEWIGEIDPSDSYANYNQKFKDKSTLSLDKSSSTAYMQLSSLTSEDSAVYYCARCDYYGRLDYWGQGTTLTVSS
VL: QVVLTQSPAIMSASPGEKVTITCSASSSVSYMLWFQQKPGTSPKLWIYSTSNLASGVPARFSGSGSGTSYSLTISRLEAEDAATYYCQQRSSYPPITFGAGTKLELK
On to B5, for which the MFI was 14100 MFI in the assay with human MerTK and 329 MFI in assay [1].

B6: MTK-211 (antibody, human IgG1, V domains shown)
VH: QVQLQQSGAELMKPGASVKLSCKATGYTFTGYWIEWVKQRPGHGLEWIGEILPGSGGSNYNEKFKGKATFTADTSSNTAYIQLSSLTTEDSAIYCCARGEPSYFSDAGFAYWGQGTLVTVSA
VL: QIVLTQSPAVMSASPGEKVTMTCSASSSITYMHWYQQKPGTSPKRWIYDTSKLASGVPARFSGSGSGTSYFLTISSMEAEDVATYYCHQRSTYPYTFGGGTKLEIM
For the molecule B6, the MFI with human MerTK came to 30500 MFI; in assay [1], 5160 MFI.

B7: MTK-213 (antibody, human IgG1, V domains shown)
VH: QVQLQQPGAELVKPGASVKMSCKASGYTFTSYWITWVKQRPGQGHEWIGEIYPGIGSTNYNEKFKSKATLTVDTSSRTAYMQLSSLTSEDSAVYFCARGAYTKYYFDYWGQGTTLTVSS
VL: DIVMTQSHKFMSTSVGDRVSITCKASQDVGDAVAWYQQKPGQTPKLLIYWASTRHTGVPDRFTGSGSGTDFTLTISNVQSEDLADYFCQQYSSYLMYTFGGGTKLEIK
As to B7, the MFI in the assay with human MerTK was 40300 MFI; in assay [1], 12800 MFI.

B8: MTK-231 (antibody, human IgG1, V domains shown)
VH: DVQLQESGPGLVKPSQSLSLTCSVTGYSITSGYYWNWIRQFPGNKLEWMGYISYDGTYNYHPSLKNRISITRDTSKNQFFLTLNSVTTEDTATFYCTRGGGYWGQGTSVTVSS
VL: DVVMTQTPLSLPVSLGDQASISCRSSQSLVHSDGNTYLHWYLQKPGQSPKLLIYKVSNRFSGVPDRFSGSGSGTDFTLKISRLEAEDLGIYFCSQTTHIPLTFGSGTKLEIK
Consider B8, for which the MFI is 39000 MFI with human MerTK and 594 MFI in assay [1].

B9: MTK-210 (antibody, human IgG1, V domains shown)
VH: QVQLQQSGPELVKPGASVKISCKASDYEFSRSWMNWVKQRPGKGLEWIGRIYPGDGDTNYNGKFKGKATLTADKSSNTAYMQLNSLTSEDSAVYFCARKGGYYYSISNYFDYWGQGTTLTVSS
VL: QIVLTQSPAIMSASPGVKVTMTCSASSSVSYMHWYQQKPGSSPRLLIYDTSNLASGVPVRFSGSGSGTSYSLTISRMEAEDAATYYCQQWSSYPPYTFGGGTKLEIK
As for B9, the MFI with human MerTK was found to be 29900 MFI; in assay [1], 252 MFI.

B10: MTK-219 (antibody, human IgG1, V domains shown)
VH: QVQLQQSGADLMKPGASVKLSCKATGNTFTGYWIEWVKQRPGHGLEWIGEILTGSGSTNYNERFKGKATFTADTSSNTAYMQLSSLTTEDSAIYYCAGSYFTNSWFPYWGQGSLVTVSA
VL: DIVLTQSPASLAVSLGQRATISCRASESVDSYGNSFMHWYQQKPGQPPKLLIYRAYTLESGIPARFSGSGSRTDFTLTINPVEADDVATYYCQQSNEDPRTFGGGTKLEIK
As for B10, the MFI with human MerTK was found to be 26800 MFI; in assay [1], 11400 MFI.

B11: MTK-222 (antibody, human IgG1, V domains shown)
VH: QVQLQQSGADLMKPGASVKLSCKATGYTFTGYWIEWVKQRPGHGLEWIGEILTGSGSSNYNEKFKGKATFTADSSSNTAFMQLSSLTTEDSAIYYCAGSYYSNSWFPYWGQGSLVTVSA
VL: DIVLTQSPVSLAVSLGQRATISCRASESVDSYGSSFMHWYQQKPGQPPKLLIYRASSLESGIPARFSGSGSRTDFTLTINPVETDDVATYYCQQSNEDPRTFGGGTKLEIK
For the molecule B11, the figures for the MFI (in the assay with human MerTK; in assay [1]) were 27500 MFI and 4760 MFI, respectively.

B12: MTK-212 (antibody, human IgG1, V domains shown)
VH: QVQLQQSGPELVKPGASVKISCKASGYAFSSSWVNWVKQRPGKGLEWIGRIYPGDGDSNYNGNFKGKATLTADKSSNTAYLQLSSLTSEDSAVYFCARKSHFIYYTLDYWGQGTPVTVSS
VL: DIVMTQSHKFKSTSVGDRVSIACKASQDVGTSVAWYQQKPGKSPKLLIYWASSRHTGVPDRFTGSGSGTDFTLTISNVQSEDLTDYFCQQYSTYPYTFGGGTKLEIK
Turning to B12, the values for the MFI (with human MerTK; in assay [1]) were 8080 MFI and 12800 MFI, respectively.

The values above are taken from patent US20240294650A1 (Alector, published 2024).
